Measured values reported in US20230144436A1 (DYNE THERAPEUTICS, published 2023).

Assays:
[1] = target: T1, human transferrin receptor 1 (human, UniProt P02786 89-760, limits assumed); experiment: average KD, antibody alone; method not given
T1 construct: also called hTfR1; huTfR1
Target sequence in this assay (P02786 89-760 limits assumed): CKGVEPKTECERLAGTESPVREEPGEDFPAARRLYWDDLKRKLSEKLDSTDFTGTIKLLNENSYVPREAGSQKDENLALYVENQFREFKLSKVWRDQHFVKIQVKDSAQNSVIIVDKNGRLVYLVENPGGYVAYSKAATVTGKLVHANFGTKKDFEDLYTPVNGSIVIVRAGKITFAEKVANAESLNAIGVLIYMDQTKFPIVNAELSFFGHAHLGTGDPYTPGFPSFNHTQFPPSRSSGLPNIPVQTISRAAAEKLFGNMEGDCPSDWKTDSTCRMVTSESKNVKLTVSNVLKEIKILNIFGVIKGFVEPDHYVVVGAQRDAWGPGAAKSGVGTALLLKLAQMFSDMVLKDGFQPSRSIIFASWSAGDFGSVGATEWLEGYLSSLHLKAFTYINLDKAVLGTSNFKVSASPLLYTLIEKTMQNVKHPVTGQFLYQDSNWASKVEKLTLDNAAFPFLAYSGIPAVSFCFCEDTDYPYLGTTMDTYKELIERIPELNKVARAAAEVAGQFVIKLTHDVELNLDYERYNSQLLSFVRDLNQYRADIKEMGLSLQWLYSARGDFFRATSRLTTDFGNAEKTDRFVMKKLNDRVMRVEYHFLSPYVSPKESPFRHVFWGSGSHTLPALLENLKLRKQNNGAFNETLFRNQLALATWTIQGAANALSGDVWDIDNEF

[2] = target: T2, cynomolgus monkey transferrin receptor 1 (cynomolgus monkey (Macaca fascicularis), UniProt Q5RDH6 89-760 (Pongo abelii entry), limits assumed); experiment: average KD, antibody alone; method not given
T2 construct: also called cyTfR1; Cyno TfR1
T2 chain: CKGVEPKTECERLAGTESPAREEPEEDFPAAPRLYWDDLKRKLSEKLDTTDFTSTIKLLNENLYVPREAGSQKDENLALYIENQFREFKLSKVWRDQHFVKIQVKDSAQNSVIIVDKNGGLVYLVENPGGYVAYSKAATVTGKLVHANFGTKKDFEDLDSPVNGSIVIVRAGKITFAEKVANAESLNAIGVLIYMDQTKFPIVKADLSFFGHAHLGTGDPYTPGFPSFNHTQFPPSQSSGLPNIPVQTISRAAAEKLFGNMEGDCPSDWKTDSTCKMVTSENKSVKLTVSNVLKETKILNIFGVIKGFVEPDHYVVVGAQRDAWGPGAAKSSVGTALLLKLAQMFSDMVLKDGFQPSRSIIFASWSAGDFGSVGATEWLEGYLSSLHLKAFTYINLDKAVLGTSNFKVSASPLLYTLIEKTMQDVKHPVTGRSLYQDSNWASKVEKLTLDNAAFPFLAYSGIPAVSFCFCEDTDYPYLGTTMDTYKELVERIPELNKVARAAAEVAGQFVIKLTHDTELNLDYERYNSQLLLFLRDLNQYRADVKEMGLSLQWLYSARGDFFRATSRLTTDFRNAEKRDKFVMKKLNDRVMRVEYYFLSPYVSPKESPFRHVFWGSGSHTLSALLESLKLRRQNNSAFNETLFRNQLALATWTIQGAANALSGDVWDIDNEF

[3] = target: T1, human transferrin receptor 1; experiment: Carterra LSA SPR array, IgG captured on anti-IgG lawn, hTfR1 as analyte, 25 C, 1:1 Langmuir fit
Protocol: Selected anti-TfR1 antibodies were tested for their binding affinity to human TfR1 for measurement of Ka (association rate constant), Kd (dissociation rate constant), and KD (affinity). […] The binding experiment was performed on Carterra LSA at 25 C. An anti-mouse IgG and anti-human IgG antibody “lawn” was prepared on a HC30M chip by amine coupling. 59 IgGs (58 mouse mAbs and 1 human mAb) were captured on the chip. Dilution series of hTfR1, cyTfR1, and hTfR2 were injected to the chip for binding (starting from 1000 nM, 1:3 dilution, 8 concentrations).
Binding data were referenced by subtracting the responses from a buffer analyte injection and globally fitting to a 1:1 Langmuir binding model for estimate of Ka (association rate constant), Kd (dissociation rate constant), and KD (affinity) using the Carterra™ Kinetics software. 5-6 concentrations were used for curve fitting.
Target sequence in this assay (P02786 89-760 limits assumed): as the sequence (P02786 89-760 limits assumed) above

[4] = target: T1, human transferrin receptor 1; experiment: ELISA on human TfR1
Protocol: (§1) The binding activity of selected formats were tested against human TfR1, cyno TfR1, and human TfR2 in an ELISA assay.

[5] = target: T2, cynomolgus monkey transferrin receptor 1; experiment: ELISA on cyno TfR1
Protocol: as §1

[6] = target: T3, human transferrin receptor 2 (human, UniProt Q9UP52 105-801, limits assumed); experiment: ELISA
T3 construct: also called human TfR2; hTfR2
T3 sequence (looked up): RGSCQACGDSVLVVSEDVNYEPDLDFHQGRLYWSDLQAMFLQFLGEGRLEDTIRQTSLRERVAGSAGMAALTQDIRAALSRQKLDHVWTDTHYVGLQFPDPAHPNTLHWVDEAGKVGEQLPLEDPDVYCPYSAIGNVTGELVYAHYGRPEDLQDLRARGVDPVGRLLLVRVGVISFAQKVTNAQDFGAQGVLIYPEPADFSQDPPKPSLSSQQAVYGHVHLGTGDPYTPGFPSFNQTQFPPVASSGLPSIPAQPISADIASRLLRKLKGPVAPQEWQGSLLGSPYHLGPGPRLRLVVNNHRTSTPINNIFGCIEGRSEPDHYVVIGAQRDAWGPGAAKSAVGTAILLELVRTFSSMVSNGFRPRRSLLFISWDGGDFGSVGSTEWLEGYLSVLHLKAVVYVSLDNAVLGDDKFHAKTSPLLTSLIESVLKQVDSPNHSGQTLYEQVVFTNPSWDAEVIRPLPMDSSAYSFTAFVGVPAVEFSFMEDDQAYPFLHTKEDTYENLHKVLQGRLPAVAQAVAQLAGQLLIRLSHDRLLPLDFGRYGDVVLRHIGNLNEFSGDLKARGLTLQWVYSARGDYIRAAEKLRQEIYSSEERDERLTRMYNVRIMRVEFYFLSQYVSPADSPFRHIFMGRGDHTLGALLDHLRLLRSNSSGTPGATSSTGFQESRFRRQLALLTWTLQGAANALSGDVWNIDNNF

[7] = target: T4, human transferrin receptor 1 (human, UniProt P02786 89-760, limits assumed); experiment: ELISA
T4 construct: also called hTfR1; human TfR1

[8] = target: T5, cynomolgus monkey transferrin receptor 1 (cynomolgus monkey, UniProt Q5RDH6 89-760 (Pongo abelii entry), limits assumed); experiment: ELISA
T5 construct: also called cTfR1; cyTfR1
T5 chain: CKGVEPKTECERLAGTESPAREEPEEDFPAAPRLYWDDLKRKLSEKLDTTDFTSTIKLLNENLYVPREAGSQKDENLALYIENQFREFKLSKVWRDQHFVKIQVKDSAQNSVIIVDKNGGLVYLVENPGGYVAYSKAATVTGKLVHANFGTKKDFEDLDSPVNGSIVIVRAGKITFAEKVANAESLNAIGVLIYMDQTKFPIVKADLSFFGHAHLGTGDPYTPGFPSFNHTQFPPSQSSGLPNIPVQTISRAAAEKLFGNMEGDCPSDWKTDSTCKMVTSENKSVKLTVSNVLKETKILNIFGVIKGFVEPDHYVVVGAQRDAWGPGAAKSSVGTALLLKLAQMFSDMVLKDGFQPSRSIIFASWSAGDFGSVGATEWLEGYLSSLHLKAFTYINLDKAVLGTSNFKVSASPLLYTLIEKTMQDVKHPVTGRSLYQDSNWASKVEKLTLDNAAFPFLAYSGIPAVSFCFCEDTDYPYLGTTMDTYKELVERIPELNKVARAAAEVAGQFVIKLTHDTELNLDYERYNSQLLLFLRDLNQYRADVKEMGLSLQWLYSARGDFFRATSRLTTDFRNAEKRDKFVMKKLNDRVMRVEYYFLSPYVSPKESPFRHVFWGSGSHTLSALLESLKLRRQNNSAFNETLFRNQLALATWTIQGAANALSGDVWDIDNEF

B1: 10-H2 (antibody, V domains shown)
VH: EVQLVESGGDLVKPGGSLKLSCAASGFTFSDYGMHWVRQGPEKGLEWVAYINSGSSTIYYADTVKGRFTISRDNAKNTLFLQMTSLRSEDTAMYYCARPGDYDNYAMDYWGQGTSVTVSS
VL: DIVMTQSHKFLSTSVGDRVSITCKASQDVSVAVAWYQQKPGQSPKLLIYWAYTRHTGVPDRFTGSGSGTEYTLTISSVQAEDLALYYCQQHYNTPPWTFGGGTKLEIK
notes: Tested as a mouse monoclonal IgG; also called 10-H02
[1]
  Kd: 2.72 nM
[2]
  Kd: 12.4 nM
[3]
  Kd: 2.72 nM
  kon: 126000 M⁻¹ s⁻¹

B2: Anti-TfR antibody 15G11 (antibody, V domains shown)
VH: QVQLQQPGAELVKPGASVKLSCKASGYTFTSYWMHWVKQRPGQGLEWIGEINPTNGRTNYIEKFKSKATLTVDKSSSTAYMQLSSLTSEDSAVYYCARGTRAYHYWGQGTSVTVSS
VL: DIQMTQSPASLSVSVGETVTITCRASDNLYSNLAWYQQKQGKSPQLLVYDATNLADGVPSRFSGSGSGTQYSLKINSLQSEDFGTYYCQHFWGTPLTFGAGTKLELK
notes: Known control antibody; It was captured as an IgG on the Carterra chip; also called ctrl-15G11; 15G11 (control)
[4]
  EC50: 0.589 nM
[1]
  Kd: 0.8 nM
[2]
  Kd: 1 nM
[3]
  Kd: 0.283 nM
[5]
  EC50: 1.08 nM

B3: 15G11 (antibody, V domains shown)
VH: QVQLQQPGAELVKPGASVKLSCKASGYTFTSYWMHWVKQRPGQGLEWIGEINPTNGRTNYIEKFKSKATLTVDKSSSTAYMQLSSLTSEDSAVYYCARGTRAYHYWGQGTSVTVSS
VL: DIQMTQSPASLSVSVGETVTITCRASDNLYSNLAWYQQKQGKSPQLLVYDATNLADGVPSRFSGSGSGTQYSLKINSLQSEDFGTYYCQHFWGTPLTFGAGTKLELK
notes: Known anti-TfR1 antibody used as control; also called control antibody 15G11; ctrl-15G11
[6]
  binding result: no binding

B4: anti-TfR antibody shown in Table 7, unconjugated (Example 18) (antibody, V domains shown)
VH: QVQLVQSGAEVKKPGESLKISCKGSGYSFTSYWIGWVRQMPGKGLEWMGIIYPGDSDTRYSPSFQGQVTISADKSISTAYLQWSSLKASDTAMYYCARFPYDSSGYYSFDYWGQGTLVTVSS
VL: not shown
notes: also called anti-TfR alone; unconjugated anti-TfR
[7]
  EC50: 26.6 nM
[8]
  EC50: 33.6 nM

B5: anti-TfR antibody shown in Table 7 conjugated to a DMPK-targeting oligonucleotide (control DMPK-ASO) (antibody, V domains shown)
VH: QVQLVQSGAEVKKPGESLKISCKGSGYSFTSYWIGWVRQMPGKGLEWMGIIYPGDSDTRYSPSFQGQVTISADKSISTAYLQWSSLKASDTAMYYCARFPYDSSGYYSFDYWGQGTLVTVSS
VL: not shown
notes: Antibody-oligonucleotide conjugate; For the uptake assay the antibody was conjugated to several different DMPK-targeting oligonucleotides and labeled with Cypher5e; also called oligonucleotide-conjugated anti-TfR; anti-TfR Fab conjugates
[7]
  EC50: 8.2 nM
[8]
  EC50: 5.3 nM

B6: anti-TfR hIgG1 (with L234A/L235A mutations in HC constant region), Table 7 clone (antibody, V domains shown)
VH: QVQLVQSGAEVKKPGESLKISCKGSGYSFTSYWIGWVRQMPGKGLEWMGIIYPGDSDTRYSPSFQGQVTISADKSISTAYLQWSSLKASDTAMYYCARFPYDSSGYYSFDYWGQGTLVTVSS
VL: not shown
notes: Tied by the description 'anti-TfR IgG heavy chain (with human IgG1 constant region mutant L234A/L235A)'
[6]
  binding result: no binding

B7: anti-TfR FAB, Table 7 clone (Fab, V domains shown)
VH: QVQLVQSGAEVKKPGESLKISCKGSGYSFTSYWIGWVRQMPGKGLEWMGIIYPGDSDTRYSPSFQGQVTISADKSISTAYLQWSSLKASDTAMYYCARFPYDSSGYYSFDYWGQGTLVTVSS
VL: not shown
[6]
  binding result: no binding
